According to PMC7118224, “Molecular and Functional Analysis of Pore-Forming Toxin Monalysin From Entomopathogenic Bacterium Pseudomonas entomophila” (Frontiers in Immunology, 2020):

B1: active-Monalysin (trypsin-treated endogenous pro-Monalysin) (natural protein, UniProt Q1I8U1 34-271, looked up)
chain: NLSGRFDQYPTKKGDFAIDGYLLDYSSPKQGCWVDGITVYGDIYIGKQNWGTYTRPVFAYLQYVETISIPQNVTTTLSYQLTKGHTRSFETSVNAKYSVGANIDIVNVGSEISTGFTRSESWSTTQSFTDTTEMKGPGTFVIYQVVLVYAHNATSAGRQNANAFAYSKTQAVGSRVDLYYLSAITQRKRVIVPSSNAVTPLDWDTVQRNVLMENYNPGSNSGHFSFDWSAYNDPHRRY
notes: Monalysin of Pseudomonas entomophila, product of trypsin cleavage of the pro-form; monomer of 27 kDa on SDS-PAGE; also called active-form; cleaved mature form; source: purified pro-Monalysin from P. entomophila L48, treated with trypsin (0.2 mg/mL, 25°C, 10 min)

Key:
[1] = target: endogenous pro-Monalysin (Pseudomonas entomophila (endogenous in strain L48)) (UniProt Q1I8U1); assay: high-speed atomic force microscopy; on mica surface in low salt buffer (30 mM NaCl, 10 mM sodium phosphate, pH 7.0), strongly immobilised
[2] = target: endogenous pro-Monalysin (Pseudomonas entomophila (endogenous in strain L48)) (UniProt Q1I8U1); assay: high-speed atomic force microscopy; on mica surface in PBS buffer, room temperature (24-26°C)
[3] = target: the molecule itself; assay: MALDI-TOF MS; active-Monalysin mixed with sinapic acid matrix; molecular weight of the multimer
[4] = target: the molecule itself; assay: high-speed atomic force microscopy; on mica surface in low salt buffer (30 mM NaCl, 10 mM sodium phosphate, pH 7.0), strongly immobilised

Row | Molecule | stoichiometry N [1] | stoichiometry N [2] | stoichiometry N [3] | stoichiometry N [4]
1 | endogenous pro-Monalysin (from UniProt Q1I8U1 1-271) (natural protein) | 8 | 16 |  | 
2 | B1 |  |  | ~8 | 8
